Patent publication US20250171512A1
Numbering of substitutions follows the chain as printed. Names may count otherwise.

B1: FGF21, human (SEQ ID NO: 2), without N-terminal tag, Q9NSA1 29-209 (ligand)
chain: HPIPDSSPLLQFGGQVRQRYLYTDDAQQTEAHLEIREDGTVGGAADQSPESLLQLKALKPGVIQILGVKTSRFLCQRPDGALYGSLHFDPEACSFRELLLEDGYNVYQSEAHGLPLHLPGNKSPHRDPAPRGPARFLPLPGLPPAPPEPPGILAPQPPDVGSSDPLSMVGPSQGRSPSYAS
B2: FGF21 R159-R163 deleted and replaced by HE (SEQ ID NO: 150), Q9NSA1 29-209 (ligand)
chain: GHPIPDSSPLLQFGGQVRQRYLYTDDAQQTEAHLEIREDGTVGGAADQSPESLLQLKALKPGVIQILGVKTSRFLCQRPDGALYGSLHFDPEACSFRELLLEDGYNVYQSEAHGLPLHLPGNKSPHRDPAPHEFLPLPGLPPAPPEPPGILAPQPPDVGSSDPLSMVGPSQGRSPSYAS
B3: FGF21 A162Y (SEQ ID NO: 151), Q9NSA1 29-209 (ligand)
chain: GHPIPDSSPLLQFGGQVRQRYLYTDDAQQTEAHLEIREDGTVGGAADQSPESLLQLKALKPGVIQILGVKTSRFLCQRPDGALYGSLHFDPEACSFRELLLEDGYNVYQSEAHGLPLHLPGNKSPHRDPAPRGPYRFLPLPGLPPAPPEPPGILAPQPPDVGSSDPLSMVGPSQGRSPSYAS
B4: FGF21 R159H (SEQ ID NO: 152), Q9NSA1 29-209 (ligand)
chain: B3 chain with R132H, Y135A
B5: FGF21 S200M (SEQ ID NO: 153), Q9NSA1 29-209 (ligand)
chain: B3 chain with Y135A, S173M
B6: FGF21 G202T (SEQ ID NO: 154), Q9NSA1 29-209 (ligand)
chain: B3 chain with Y135A, G175T
B7: FGF21 G202-R203 deleted (SEQ ID NO: 157), Q9NSA1 29-209 (ligand)
chain: GHPIPDSSPLLQFGGQVRQRYLYTDDAQQTEAHLEIREDGTVGGAADQSPESLLQLKALKPGVIQILGVKTSRFLCQRPDGALYGSLHFDPEACSFRELLLEDGYNVYQSEAHGLPLHLPGNKSPHRDPAPRGPARFLPLPGLPPAPPEPPGILAPQPPDVGSSDPLSMVGPSQSPSYAS
B8: G-FGF21 with a leucine in position 174 (SEQ ID NO: 174), Q9NSA1 29-209 (ligand)
chain: B3 chain with Y135A, P147L
B9: FGF21 D155L (SEQ ID NO: 124), Q9NSA1 29-209 (ligand)
chain: B3 chain with D128L, Y135A
B10: FGF21 D155K (SEQ ID NO: 125), Q9NSA1 29-209 (ligand)
chain: B3 chain with D128K, Y135A
B11: FGF21 D155Y (SEQ ID NO: 126), Q9NSA1 29-209 (ligand)
chain: B3 chain with D128Y, Y135A
B12: FGF21 D155P (SEQ ID NO: 127), Q9NSA1 29-209 (ligand)
chain: B3 chain with D128P, Y135A
B13: FGF21 D155E (SEQ ID NO: 128), Q9NSA1 29-209 (ligand)
chain: B3 chain with D128E, Y135A
B14: FGF21 D155N (SEQ ID NO: 129), Q9NSA1 29-209 (ligand)
chain: B3 chain with D128N, Y135A
B15: FGF21 R154Q, D155L (SEQ ID NO: 130), Q9NSA1 29-209 (ligand)
chain: B3 chain with R127Q, D128L, Y135A
B16: FGF21 R154Q, D155K (SEQ ID NO: 131), Q9NSA1 29-209 (ligand)
chain: B3 chain with R127Q, D128K, Y135A
B17: FGF21 H153Q, R154Q, D155N, A157V, R159K (SEQ ID NO: 132), Q9NSA1 29-209 (ligand)
chain: B3 chain with H126Q, R127Q, D128N, A130V, R132K, Y135A
B18: FGF21 P152A, H153K, R154K, D155E, P156A, A157S, R159Q (SEQ ID NO: 133), Q9NSA1 29-209 (ligand)
chain: B3 chain with P125A, H126K, R127K, D128E, P129A, A130S, R132Q, Y135A
B19: FGF21 H153Y, R154K, D155N, P156K, A157G (SEQ ID NO: 134), Q9NSA1 29-209 (ligand)
chain: B3 chain with H126Y, R127K, D128N, P129K, A130G, Y135A
B20: FGF21 P152-H153 deleted (SEQ ID NO: 135), Q9NSA1 29-209 (ligand)
chain: GHPIPDSSPLLQFGGQVRQRYLYTDDAQQTEAHLEIREDGTVGGAADQSPESLLQLKALKPGVIQILGVKTSRFLCQRPDGALYGSLHFDPEACSFRELLLEDGYNVYQSEAHGLPLHLPGNKSRDPAPRGPARFLPLPGLPPAPPEPPGILAPQPPDVGSSDPLSMVGPSQGRSPSYAS
B21: G-FGF21 (SEQ ID NO: 3), without N-terminal tag, Q9NSA1 29-209 (ligand)
chain: B3 chain with Y135A
B22: FGF21 N149-R163 deleted and replaced by GSGS (SEQ ID NO: 136), Q9NSA1 29-209 (ligand)
chain: GHPIPDSSPLLQFGGQVRQRYLYTDDAQQTEAHLEIREDGTVGGAADQSPESLLQLKALKPGVIQILGVKTSRFLCQRPDGALYGSLHFDPEACSFRELLLEDGYNVYQSEAHGLPLHLPGGSGSFLPLPGLPPAPPEPPGILAPQPPDVGSSDPLSMVGPSQGRSPSYAS
B23: FGF21 N149-A162 deleted and replaced by GSHSG (SEQ ID NO: 137), Q9NSA1 29-209 (ligand)
chain: GHPIPDSSPLLQFGGQVRQRYLYTDDAQQTEAHLEIREDGTVGGAADQSPESLLQLKALKPGVIQILGVKTSRFLCQRPDGALYGSLHFDPEACSFRELLLEDGYNVYQSEAHGLPLHLPGGSHSGRFLPLPGLPPAPPEPPGILAPQPPDVGSSDPLSMVGPSQGRSPSYAS
B24: FGF21 N149-A162 deleted and replaced by GSHSGS (SEQ ID NO: 138), Q9NSA1 29-209 (ligand)
chain: GHPIPDSSPLLQFGGQVRQRYLYTDDAQQTEAHLEIREDGTVGGAADQSPESLLQLKALKPGVIQILGVKTSRFLCQRPDGALYGSLHFDPEACSFRELLLEDGYNVYQSEAHGLPLHLPGGSHSGSRFLPLPGLPPAPPEPPGILAPQPPDVGSSDPLSMVGPSQGRSPSYAS
B25: FGF21 K150H (SEQ ID NO: 139), Q9NSA1 29-209 (ligand)
chain: B3 chain with K123H, Y135A
B26: FGF21 K150H, P152L (SEQ ID NO: 140), Q9NSA1 29-209 (ligand)
chain: B3 chain with K123H, P125L, Y135A
B27: FGF21 R163H (SEQ ID NO: 141), Q9NSA1 29-209 (ligand)
chain: B3 chain with Y135A, R136H
B28: FGF21 P158H, R159H (SEQ ID NO: 142), Q9NSA1 29-209 (ligand)
chain: B3 chain with P131H, R132H, Y135A
B29: FGF21 N149-D155 deleted and replaced by GSGS (SEQ ID NO: 143), Q9NSA1 29-209 (ligand)
chain: GHPIPDSSPLLQFGGQVRQRYLYTDDAQQTEAHLEIREDGTVGGAADQSPESLLQLKALKPGVIQILGVKTSRFLCQRPDGALYGSLHFDPEACSFRELLLEDGYNVYQSEAHGLPLHLPGGSGSPAPRGPARFLPLPGLPPAPPEPPGILAPQPPDVGSSDPLSMVGPSQGRSPSYAS
B30: FGF21 N149-D155 deleted and replaced by GSHSG (SEQ ID NO: 144), Q9NSA1 29-209 (ligand)
chain: B20 chain with N122G, K123S, S124H, R125S, D126G
B31: FGF21 N149-D155 deleted and replaced by ATTS (SEQ ID NO: 145), Q9NSA1 29-209 (ligand)
chain: B29 chain with G122A, S123T, G124T

These binders were tested against human FGFR1c together with human beta-Klotho (KLB), stably expressed on CHO Flp-In cells (human), P11362 (assay: cell-based or functional assay).
human FGFR1c together with human beta-Klotho (KLB), stably expressed on CHO Flp-In cells (human), P11362, sequence (P11362 22-822, chain 1 of 2): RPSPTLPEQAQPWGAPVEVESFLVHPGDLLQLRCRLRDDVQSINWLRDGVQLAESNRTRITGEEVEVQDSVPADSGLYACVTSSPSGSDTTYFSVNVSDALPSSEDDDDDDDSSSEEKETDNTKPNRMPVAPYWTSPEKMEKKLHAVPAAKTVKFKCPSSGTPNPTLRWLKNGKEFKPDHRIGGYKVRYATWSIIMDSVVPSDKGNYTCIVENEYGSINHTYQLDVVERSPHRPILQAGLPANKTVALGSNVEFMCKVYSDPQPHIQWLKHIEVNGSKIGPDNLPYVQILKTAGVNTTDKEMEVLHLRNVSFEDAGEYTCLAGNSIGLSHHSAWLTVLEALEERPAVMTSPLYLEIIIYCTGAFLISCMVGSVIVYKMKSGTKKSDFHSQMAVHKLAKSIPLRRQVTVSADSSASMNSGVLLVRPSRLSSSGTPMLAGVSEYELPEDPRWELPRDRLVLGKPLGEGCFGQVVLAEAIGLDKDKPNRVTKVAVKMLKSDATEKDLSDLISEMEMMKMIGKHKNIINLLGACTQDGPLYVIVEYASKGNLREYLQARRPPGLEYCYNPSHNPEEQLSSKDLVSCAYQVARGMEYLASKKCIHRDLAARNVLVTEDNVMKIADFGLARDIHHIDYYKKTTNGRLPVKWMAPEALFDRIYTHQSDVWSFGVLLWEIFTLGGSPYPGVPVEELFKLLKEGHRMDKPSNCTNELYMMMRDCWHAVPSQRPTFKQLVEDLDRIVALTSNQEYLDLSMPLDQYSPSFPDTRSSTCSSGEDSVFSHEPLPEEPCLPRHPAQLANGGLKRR
human FGFR1c together with human beta-Klotho (KLB), stably expressed on CHO Flp-In cells (human), P11362, sequence (Q86Z14 whole entry, chain 2 of 2, further chain): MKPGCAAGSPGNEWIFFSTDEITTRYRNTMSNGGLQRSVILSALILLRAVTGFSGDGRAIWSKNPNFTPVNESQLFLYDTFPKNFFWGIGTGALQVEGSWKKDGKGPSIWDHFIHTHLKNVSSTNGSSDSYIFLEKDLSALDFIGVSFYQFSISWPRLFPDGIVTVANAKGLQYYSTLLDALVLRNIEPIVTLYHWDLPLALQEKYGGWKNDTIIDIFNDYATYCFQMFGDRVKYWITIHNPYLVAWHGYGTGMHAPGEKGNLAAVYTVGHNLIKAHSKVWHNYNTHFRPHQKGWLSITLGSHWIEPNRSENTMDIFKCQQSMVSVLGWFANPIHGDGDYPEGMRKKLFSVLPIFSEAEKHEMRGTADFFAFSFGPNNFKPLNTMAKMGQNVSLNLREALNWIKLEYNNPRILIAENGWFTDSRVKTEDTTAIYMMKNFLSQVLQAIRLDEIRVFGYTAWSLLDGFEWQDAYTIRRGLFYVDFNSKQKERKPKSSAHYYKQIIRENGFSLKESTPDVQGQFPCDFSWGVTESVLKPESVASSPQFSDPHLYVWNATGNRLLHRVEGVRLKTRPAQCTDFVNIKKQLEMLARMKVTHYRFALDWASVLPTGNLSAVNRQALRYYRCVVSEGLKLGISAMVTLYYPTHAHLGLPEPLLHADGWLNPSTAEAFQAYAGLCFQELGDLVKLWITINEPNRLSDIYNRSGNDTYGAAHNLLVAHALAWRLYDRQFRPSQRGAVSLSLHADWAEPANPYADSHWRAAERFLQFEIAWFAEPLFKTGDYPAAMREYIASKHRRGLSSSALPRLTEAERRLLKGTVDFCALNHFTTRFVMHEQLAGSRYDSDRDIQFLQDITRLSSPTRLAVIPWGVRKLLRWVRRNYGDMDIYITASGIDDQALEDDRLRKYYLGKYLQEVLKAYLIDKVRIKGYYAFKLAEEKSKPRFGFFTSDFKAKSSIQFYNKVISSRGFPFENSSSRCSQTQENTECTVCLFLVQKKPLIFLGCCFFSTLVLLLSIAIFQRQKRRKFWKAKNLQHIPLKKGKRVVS

Q: How did the pERK ICW EC50 turn out when B1 was run?
A: The pERK ICW EC50 was 0.17 nmol/L.

Q: What about the pFGFR ICW EC50 of the same binder?
A: Its pFGFR ICW EC50 is 4.49 nmol/L.

Q: And the pFGFR ICW Emax?
A: Its pFGFR ICW Emax is 146%.

Q: B2 was tested. Which pERK ICW EC50 did it give?
A: Its pERK ICW EC50 is 0.98 nmol/L.

Q: How did the pERK ICW EC50 turn out when B3 was run?
A: The pERK ICW EC50 was 0.08 nmol/L.

Q: How did the pERK ICW EC50 turn out when B4 was run?
A: The pERK ICW EC50 was 0.17 nmol/L.

Q: With B5 as the binder, how does the pERK ICW EC50 read?
A: The pERK ICW EC50 was 0.17 nmol/L.

Q: For B6, which pERK ICW EC50 is on record?
A: Its pERK ICW EC50 is 0.01 nmol/L.

Q: B7 was tested. Which pERK ICW EC50 did it give?
A: Its pERK ICW EC50 is 1.63 nmol/L.

Q: For B8, which In-Cell Western EC50 is on record?
A: The In-Cell Western EC50 was 0.21 nM.

Q: How did the pERK ICW EC50 turn out when B9 was run?
A: The pERK ICW EC50 was 0.11 nmol/L.

Q: B10 was tested. Which pERK ICW EC50 did it give?
A: Its pERK ICW EC50 is 0.06 nmol/L.

Q: For B11, which pERK ICW EC50 is on record?
A: Its pERK ICW EC50 is 0.07 nmol/L.

Q: With B12 as the binder, how does the pERK ICW EC50 read?
A: The pERK ICW EC50 was 0.08 nmol/L.

Q: B13 was tested. Which pERK ICW EC50 did it give?
A: Its pERK ICW EC50 is 0.13 nmol/L.

Q: B14 was tested. Which pERK ICW EC50 did it give?
A: Its pERK ICW EC50 is 0.06 nmol/L.

Q: B15 was tested. Which pERK ICW EC50 did it give?
A: Its pERK ICW EC50 is 0.14 nmol/L.

Q: With B16 as the binder, how does the pERK ICW EC50 read?
A: The pERK ICW EC50 was 0.39 nmol/L.

Q: Which pERK ICW EC50 does the source give for B17 here?
A: Its pERK ICW EC50 is 0.23 nmol/L.

Q: With B18 as the binder, how does the pERK ICW EC50 read?
A: Its pERK ICW EC50 is 0.24 nmol/L.

Q: With B19 as the binder, how does the pERK ICW EC50 read?
A: The pERK ICW EC50 was 0.05 nmol/L.

Q: How did the pERK ICW EC50 turn out when B20 was run?
A: The pERK ICW EC50 was 0.21 nmol/L.

Q: B21 was tested. Which pERK ICW EC50 did it give?
A: The pERK ICW EC50 was 0.24 nmol/L.

Q: With B22 as the binder, how does the pERK ICW EC50 read?
A: Its pERK ICW EC50 is 3.69 nmol/L.

Q: B23 was tested. Which pERK ICW EC50 did it give?
A: The pERK ICW EC50 was 0.57 nmol/L.

Q: How did the pERK ICW EC50 turn out when B24 was run?
A: Its pERK ICW EC50 is 0.19 nmol/L.

Q: How did the pERK ICW EC50 turn out when B25 was run?
A: The pERK ICW EC50 was 0.15 nmol/L.

Q: B26 was tested. Which pERK ICW EC50 did it give?
A: Its pERK ICW EC50 is 0.13 nmol/L.

Q: How did the pERK ICW EC50 turn out when B27 was run?
A: The pERK ICW EC50 was 0.39 nmol/L.

Q: Which pERK ICW EC50 does the source give for B28 here?
A: The pERK ICW EC50 was 0.84 nmol/L.

Q: B29 was tested. Which pERK ICW EC50 did it give?
A: The pERK ICW EC50 was 0.28 nmol/L.

Q: For B30, which pERK ICW EC50 is on record?
A: The pERK ICW EC50 was 0.1 nmol/L.

Q: How did the pERK ICW EC50 turn out when B31 was run?
A: Its pERK ICW EC50 is 0.02 nmol/L.
